The values below come from US20240043568A1.

The target in test [1] is recombinant GST-human GPC3 stem protein (human). Briefly: ELISA, coated antigen 1 µg/ml.
Test [2] deals with recombinant cynomolgus monkey GPC3 full-length protein (cynomolgus monkey). Briefly: ELISA, coated antigen 1 µg/ml.
In test [3] the target is recombinant human GPC3 protein (human) (UniProt P51654). Briefly: ELISA, coated antigen 1 µg/ml.
The target in test [4] is human GPC3 on cells (human) (UniProt P51654). As to the kind of experiment: flow cytometry, CHO-human GPC3 cells.
The target in test [5] is recombinant human GPC3 protein (human) (UniProt P51654). As to the kind of experiment: BLI (Octet), antibody on Protein A probe.
For test [6] the target is unchanged. Briefly: BLI (Octet), antibody on Protein A probe. This is another data set of the same source.
The target in test [7] is recombinant cynomolgus monkey GPC3 full-length protein (cynomolgus monkey). Briefly: SPR (Biacore T200), antibody on Protein A chip, GPC3 as analyte.
In test [8] the target is recombinant human GPC3 protein (human) (UniProt P51654). The test is described as above.
In test [9] the target is human GPC3 on cells (human) (UniProt P51654). Briefly: flow cytometry on human GPC3-CHO stably-transfected cells, MFI.
In test [10] the target is recombinant human GPC3 protein (human) (UniProt P51654). Briefly: ELISA on coated recombinant human GPC3 protein, OD450 [panel Recombinant human GPC3 protein].
The target of test [11] is recombinant cynomolgus monkey GPC3 full-length protein (cynomolgus monkey). As to the kind of experiment: ELISA on coated recombinant cynomolgus monkey GPC3 protein, OD450 [panel Recombinant cynomolgus monkey GPC3 protein].
Test [12] deals with human CD3 on T cells (human) (UniProt P07766). As to the kind of experiment: flow cytometry, Jurkat cells.
Test [13] shares this target. Briefly: flow cytometry, human peripheral blood CD4+ T cells.
Test [14] has the same target. As to the kind of experiment: flow cytometry, human peripheral blood CD8+ T cells.

recombinant GST-human GPC3 stem protein (human), sequence (chain, as listed by the source limits assumed, form in doubt): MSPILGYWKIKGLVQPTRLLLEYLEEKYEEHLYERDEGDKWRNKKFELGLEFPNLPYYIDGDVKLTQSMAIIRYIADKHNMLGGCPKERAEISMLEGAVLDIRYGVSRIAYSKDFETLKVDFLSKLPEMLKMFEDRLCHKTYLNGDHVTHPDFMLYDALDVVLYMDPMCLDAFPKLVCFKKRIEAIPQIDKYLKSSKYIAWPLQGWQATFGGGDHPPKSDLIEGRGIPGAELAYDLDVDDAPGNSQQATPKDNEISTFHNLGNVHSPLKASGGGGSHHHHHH

Regarding GC33 (antibody), the EC50 was 0.06 nM in [1], 0.16 nM in [2], 0.074 nM in [3] and 2.74 nM in [4]. Besides, the Kd in [5] stood at 4.17 nM; in test [6], 1.35 nM; in test [7], 6.38 nM; in test [8] it was 1.03 nM. In addition, the koff in test [5] stood at 0.000229 s⁻¹; in [6], 0.000111 s⁻¹; in [7], 0.000429 s⁻¹; in [8], 0.000185 s⁻¹. Also, the kon in test [5] worked out at 54900 M⁻¹ s⁻¹; in [6], 82600 M⁻¹ s⁻¹; in test [7], 67200 M⁻¹ s⁻¹; in [8], 181000 M⁻¹ s⁻¹. In addition, the EC50 (read off the curve) in [9] stood at 4 nM; in test [10], 0.03 nM; in test [11], 0.03 nM.
As to KLH×CD3 (bispecific antibody), the EC50 turned out to be 27 nM in test [12], 77 nM in [13] and 84 nM in test [14].
As for OKT3-hIgG1 (antibody), the concentration giving a half-maximal response (EC50) in test [12] was 0.27 nM.
